Series [1] addresses T1, PhoD (mPhoD) (Bacillus subtilis, UniProt P42251).
T1 sequence (P42251 57-583): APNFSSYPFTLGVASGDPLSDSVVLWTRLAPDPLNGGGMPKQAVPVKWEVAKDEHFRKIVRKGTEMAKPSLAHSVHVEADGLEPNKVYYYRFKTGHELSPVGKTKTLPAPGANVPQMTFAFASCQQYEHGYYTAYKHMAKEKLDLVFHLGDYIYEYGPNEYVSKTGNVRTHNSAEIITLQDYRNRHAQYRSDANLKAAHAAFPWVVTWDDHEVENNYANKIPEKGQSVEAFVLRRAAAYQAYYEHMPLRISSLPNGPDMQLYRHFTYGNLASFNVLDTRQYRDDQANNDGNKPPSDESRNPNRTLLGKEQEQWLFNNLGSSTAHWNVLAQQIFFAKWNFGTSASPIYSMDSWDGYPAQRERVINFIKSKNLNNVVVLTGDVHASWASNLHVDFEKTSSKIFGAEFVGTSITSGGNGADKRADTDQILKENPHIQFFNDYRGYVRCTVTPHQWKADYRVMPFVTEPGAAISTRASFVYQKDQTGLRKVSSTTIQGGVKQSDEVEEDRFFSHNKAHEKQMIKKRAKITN
The following applies: crystallised at pH 5.6 with phosphate; active site, coordinates Fe3+ and two Ca2+ ions; proposed product complex.

Substrate in series [2]: O=[N+]([O-])c1ccc(OP(=O)(O)O)cc1
The series is described as follows: purified protein. In kind it is biochemical, Bacillus subtilis. To be noted: pH 8.0, 25 °C, 100 mM Tris-HCl, 2 mM CaCl2, Ca2+-supplemented enzyme.

Turning to `O=P(O)(O)O` [phosphate], the “X-ray crystal structure, 2 Å” value in series [1] is “the structure contains a phosphate molecule bound at the active site”.

B1: PhoD (mPhoD) (Bacillus subtilis subsp. subtilis str. 168) (protein)
chain: T1 sequence (P42251 57-583)
notes: mature domain, signal peptide removed; N-terminal Strep-SUMO tag cleaved by Ulp1; E. coli BL21(DE3) cytoplasm
As usually defined, the Km is the substrate concentration at which the rate is half of its maximum. As a reminder, the kcat is the number of substrate molecules converted per active site and unit of time at saturation. For B1, in series [2], the Km is 50 µM and the kcat stood at 1.2 s⁻¹.

(Values after PMC4223295, “Crystal Structure of the Bacillus subtilis Phosphodiesterase PhoD Reveals an Iron and Calcium-containing Active Site” (The Journal of Biological Chemistry, 2014).)
